System: O=C(O)C(=O)/C=C/c1ccccc1O
Experiment: purified protein
Conditions: 50 mM Na2HPO4 pH 7.2, 22 °C

“NahE (His-tag NahE) (Pseudomonas putida; T65S)” was tested, and the Km was 1.7 ± 0.3 µM, the kcat was 0.0085 s⁻¹ and the kcat/Km was 5000 M⁻¹ s⁻¹.

Work on “NahE (His-tag NahE) (Pseudomonas putida; W128F)” yielded a Km of 8 ± 2 µM, a kcat of 8 s⁻¹ and a kcat/Km of 1e+06 M⁻¹ s⁻¹.

Work on “NahE (His-tag NahE) (Pseudomonas putida; N157L)” yielded a Km of 60 ± 10 µM, a kcat of 0.6 s⁻¹ and a kcat/Km of 10000 M⁻¹ s⁻¹.

Substance “NahE (His-tag NahE) (Pseudomonas putida; T65V)” has a Km of 21 ± 8 µM, a kcat of 0.004 s⁻¹ and a kcat/Km of 190 M⁻¹ s⁻¹.

“NahE (His-tag NahE) (Pseudomonas putida; W128Y)” was tested, and the Km was 7 ± 1 µM, the kcat was 5 s⁻¹ and the kcat/Km was 700000 M⁻¹ s⁻¹.

Substance “NahE (His-tag NahE) (Pseudomonas putida; Y155F)” has a Km of 4 ± 1 µM, a kcat of 0.004 s⁻¹ and a kcat/Km of 1000 M⁻¹ s⁻¹.

“NahE (His-tag NahE) (Pseudomonas putida; N157A)” gave a Km of 8 ± 1 µM, a kcat of 0.13 s⁻¹ and a kcat/Km of 16000 M⁻¹ s⁻¹.
